Consider six molecules from patent US20190276521A1 (Kyowa Kirin, published 2019).

Experiment [1] deals with full-length CD16a (V) expressed on CHO/DG44 cells (human) (UniProt P08637). Kind of experiment: flow cytometry competition on CD16a-expressing CHO/DG44 cells; competitor: anti-DNP antibody complexed with DNP-BSA-biotin.
For experiment [2], the target named is histidine tag-conjugated soluble CD16a (V) (human) (UniProt P08637). The experiment is described as follows: ELISA, soluble CD16a-His captured by anti-Tetra-His antibody, anti-human IgG-HRP detection. (In general: ELISA stands for enzyme-linked immunosorbent assay.)
For a further experiment, the target named is T1, Chimera A (human with bovine residues, UniProt P00738 19-406).
T1 construct: α and β linked by a disulfide bond; Expi293F; also called human Hp/bovine Hp chimeric protein
T1 chain: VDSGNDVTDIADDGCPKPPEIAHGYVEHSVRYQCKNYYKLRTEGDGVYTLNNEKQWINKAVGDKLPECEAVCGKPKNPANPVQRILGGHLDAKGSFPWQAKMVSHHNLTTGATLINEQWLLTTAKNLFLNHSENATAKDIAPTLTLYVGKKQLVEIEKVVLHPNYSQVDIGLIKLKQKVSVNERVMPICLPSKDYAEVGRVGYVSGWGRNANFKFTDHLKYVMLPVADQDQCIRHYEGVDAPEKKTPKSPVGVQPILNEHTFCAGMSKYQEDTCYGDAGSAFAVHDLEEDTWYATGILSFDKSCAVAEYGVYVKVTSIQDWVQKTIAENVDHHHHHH
Kind of experiment: ELISA on plate-coated antigen (-: absorbance ratio less than 0.5). As for the experimental part: (§1) The chimeras A to F, the recombinant human Hp and bovine Hp were immobilized in a 96-well plate based on the method described in Example 5, and blocking was performed.
(§2) The plate was washed 3 times with PBST, Goat anti Human IgG (H&L)-HRP or Rabbit anti-Mouse IgG-HRP diluted with 1% BSA-PBS was dispensed into the plate at 50 μL/well, and the plate was left to stand for 1 hour at room temperature. The color development and the absorbance measurement to be carried out thereafter were performed based on the method described in Example 5. By regarding the absorbance of the well, in which each of the anti-Hp antibodies was reacted with the recombinant human Hp, as 1, a ratio of the absorbance, in which the sample was reacted, to the aforementioned absorbance was calculated.

Experiment [3] addresses T2, human haptoglobin (human Hp) (human, UniProt P00738 19-160; P00738 162-406).
T2 sequence 1: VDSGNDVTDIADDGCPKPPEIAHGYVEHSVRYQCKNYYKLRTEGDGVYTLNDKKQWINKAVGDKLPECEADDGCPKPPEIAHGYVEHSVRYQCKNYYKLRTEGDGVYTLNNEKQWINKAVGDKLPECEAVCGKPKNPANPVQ
T2 sequence 2: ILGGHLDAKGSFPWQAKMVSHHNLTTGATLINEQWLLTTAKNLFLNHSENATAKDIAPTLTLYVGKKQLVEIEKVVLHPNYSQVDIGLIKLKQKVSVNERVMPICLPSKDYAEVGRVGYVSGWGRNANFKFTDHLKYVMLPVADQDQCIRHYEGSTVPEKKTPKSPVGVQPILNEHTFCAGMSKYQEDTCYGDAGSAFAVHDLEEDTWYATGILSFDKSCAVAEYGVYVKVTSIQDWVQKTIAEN
The experiment is described as follows: competitive ELISA on plate-coated human Hp (-: absorbance less than 0.5); competitor: anti-Hp polyclonal antibody. As to the method: The immobilized solution was removed, 1% BSA-PBS was then dispensed into the plate at 100 μL/well, and the plate was left to stand for 1 hour at room temperature for blocking and washed 3 times with PBST.
The plate was washed 3 times of PBST, and ABTS was dispensed into the plate at 50 μL/well for developing color. At a point in time when color was appropriately developed, 1% SDS was dispensed into the plate at 50 μL/well, and by using a plate reader, the absorbance at a sample wavelength of 415 nm and a reference wavelength of 490 nm was measured.

Experiment [4] concerns the target T2, human haptoglobin (human Hp). The experiment is described as follows: SEC-MALS of antibody 0.5 mg/mL mixed with human Hp 1.3 mg/mL, 16 hours at 37° C. As for the experimental part: In order to check whether the anti-Hp antibodies have bound to the human Hp and formed a immune complex, analysis was performed by gel filtration chromatography (Size Exclusion Chromatography, SEC) (column; BioSep SEC-s4000, 7.8×300 mm, Phenomenex Inc.) using HPLC (Prominence, Shimadzu Corporation).
The column was equilibrated using a mobile phase [50 mmol/L phosphate buffer (pH 7.0, 500 mmol/L NaCl)], the anti-Hp antibodies and the human Hp (Japan Blood Products Organization) were diluted with PBS and mixed together such that the concentrations of the anti-Hp antibodies and the human Hp became 0.5 mg/mL and 1.3 mg/mL, respectively, and the mixed solution was left to stand for 16 hours at 37° C.
The components contained in […] of the mixed solution were separated at a flow rate of 0.5 mL/min. Then, for each peak detected at a wavelength of 280 nm, a molecular weight was calculated using a maximum value of scattering intensity detected by a multi angle light scattering (MALS) detector (miniDAWN TREOS, Wyatt Technology Corporation).
(In general: In gel filtration, larger molecules generally elute earlier.)

The next experiment deals with T3, Chimera F (human with bovine residues, UniProt P00738 19-406).
T3 construct: Expi293F; also called human Hp/bovine Hp chimeric protein
T3 chain: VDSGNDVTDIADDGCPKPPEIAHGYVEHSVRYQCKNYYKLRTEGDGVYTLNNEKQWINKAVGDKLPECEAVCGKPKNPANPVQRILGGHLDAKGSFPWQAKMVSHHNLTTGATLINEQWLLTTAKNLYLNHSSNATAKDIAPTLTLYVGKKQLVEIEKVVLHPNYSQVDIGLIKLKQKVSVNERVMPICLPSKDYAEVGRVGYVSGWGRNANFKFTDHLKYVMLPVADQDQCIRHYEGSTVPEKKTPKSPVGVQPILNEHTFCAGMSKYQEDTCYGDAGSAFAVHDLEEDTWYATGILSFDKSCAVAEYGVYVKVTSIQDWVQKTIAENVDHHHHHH
Kind of experiment: ELISA on plate-coated antigen (-: absorbance ratio less than 0.5). As for the experimental part: as §1, §2

Bounds are passed on as bounds.

The IC50 is the concentration needed to halve the response being measured. A low value points to higher potency. One may read the EC50 as the concentration needed to bring the measured effect to its halfway point. Higher therefore signals weaker potency.

Chain of histidine tag-conjugated soluble CD16a (V) (human) (P08637 other isoform, or with tags, fused parts or gaps limits assumed): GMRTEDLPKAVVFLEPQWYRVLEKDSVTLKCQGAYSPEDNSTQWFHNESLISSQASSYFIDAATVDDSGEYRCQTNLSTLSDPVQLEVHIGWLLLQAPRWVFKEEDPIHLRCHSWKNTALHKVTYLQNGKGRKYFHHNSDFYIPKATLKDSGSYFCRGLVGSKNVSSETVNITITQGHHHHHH
Chain of full-length CD16a (V) expressed on CHO/DG44 cells (human) (P08637 17-254 F176V limits assumed): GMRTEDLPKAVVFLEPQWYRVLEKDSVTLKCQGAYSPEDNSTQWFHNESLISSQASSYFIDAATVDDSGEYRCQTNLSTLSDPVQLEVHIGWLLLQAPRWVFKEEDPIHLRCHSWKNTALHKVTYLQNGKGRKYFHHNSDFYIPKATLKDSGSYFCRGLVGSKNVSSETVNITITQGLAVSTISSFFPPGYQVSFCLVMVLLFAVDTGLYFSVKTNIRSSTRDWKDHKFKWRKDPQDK

In experiment [1], “Intravenous immunoglobulin (IVIG) (antibody)” showed an IC50 of 540 µg/mL. In addition, the concentration giving a half-maximal response (EC50) in experiment [2] was 1.06 µg/mL.

B1: anti-Hp antibody #105 (antibody, V domains shown)
VH: QVHLQQWGAGLLKPSETLSLTCNVYGSSLSQYFWNWIRQPPGKGLEWMGRITSGGSTNYNPSLESRVTIIVDTFKNQFSLKLVSVTAADTAVYYCARGPFVEGAAPTVLGTGFSIWGQGTMVTVSS
VL: EIVLTQSPGTLSLSPGERATLSCRASQSVNNNYLAWYQQKPGQAPRLLIYDASKRATGIPDRFSGSGSGTDFTLTISRLEPEDFAVYYCQQYGHSRPYTFGQGAKLEIK
notes: Recombinant human IgG1/kappa antibody
With B1, the “absorbance ratio to recombinant human Hp” value with Chimera A is less than 0.5. This molecule registered an EC50 in experiment [2] of 0.405 µg/mL. For the same molecule, the “absorbance (415 nm, reference 490 nm)” value in experiment [3] is less than 0.5.

B2: anti-Hp antibody #4 (antibody, V domains shown)
VH: EVHLLESGGGLVQPGGSLRLSCQASGFTFNSNAMSWVRRAPGKGLEWISSIGANTNYIYTADSVKGRFTISRDNSKNTLYLQMNSLRAEDTAAYYCAKNRDRYSYDAWSVWGQGTTVTVSS
VL: DIQMTQSPSTLSASVGDRVTITCRASQSIDIWLAWYQQKPGKAPKLLIYEASSLESEVPSRFSGSGSGTEFTLTISSLQPDDFATYYCQAYNSNYPYAFGQGTNLEIK
notes: also called clone #4; #4 antibody
Consider B2, for which the EC50 in experiment [2] came out at 1.99 µg/mL. For the same molecule, the “Peak molecular weight of immune complex” value in experiment [4] was 341000.

B3: anti-Hp antibody #96-6 (antibody, V domains shown)
VH: EVQLLESGGGLVQPGGSLRLSCEASGSSVSSHFMTWVRQSPGKGLEWVSSISPNPAYTYYANSVKGRFTISRDNSKNMLYLQMNDLRAEDTARYYCARRSDFDTWGQGTMLTVSS
VL: DIQMTQSPSAMSASVGDRVTITCRASRYIGKDLAWFQQKPGEVPKRLIYDASSLQSGVPSRFSGSGSGTEFTLTVSNLQPEDLGTYYCQHYYTFPLTFGPGTKVDIK
notes: Recombinant human IgG1/kappa antibody; also called clone #96-6; Labeled #96-6
As to B3, the EC50 in experiment [2] stood at 0.473 µg/mL. For the same molecule, the “absorbance (415 nm, reference 490 nm)” value in experiment [3] was less than 0.5.

B4: anti-Hp antibody #27 (antibody, V domains shown)
VH: EQQLVESGGGLVQPGRSLTLSCVASGFTFGDYAMGWVRQAPGKGLEWVSSISSDALYKGYVDSVKGRFTVSRDNAKNSLYLQMDNLRTEDTAFYYCTKDLRSGNFGQYGDWGQGTLVTVSS
VL: AIQMTQSPSSLSASVGDRVTITCRASQGIGSDLTWYQQEPGKAPKLLIYAASTLQSGVPSRFSGGGSGTDFTLTISSLQPEDAATYYCLQSHGYPLTFGQGTKLEIK
notes: Recombinant human IgG1/kappa antibody; also called clone #27; #27 antibody
With B4, the IC50 in experiment [1] worked out at 238 µg/mL. Moreover, the “absorbance ratio to recombinant human Hp” value in the experiment with Chimera F is less than 0.5. The molecule also came in with a half-maximal effective concentration (EC50) in experiment [2] of 0.763 µg/mL. In addition, the “Peak molecular weight of immune complex” value in experiment [4] came out at 523000.

B5: anti-Hp antibody #6 (antibody, V domains shown)
VH: EVQLLESGGGLVQPGGSLKLSCVASEFTFSNYAMSWVRQAPGKGLEWVSTFSSGGSRTFYADSVRGRFTISRDNSNNMLFLQIDSLRAEDTAVYYCAKAQFVGHWAQYNYWGQGALVTVSS
VL: DIQMTQSPSSLSASVGDRVAITCRASQGIRNYLAWYQQKPGKVPKLLIYDAFILQSGVPSRFSGSGSGTDFTLTISSLQPEDVATYYCQKSDSPPLTFGGGTKVEIK
notes: Recombinant human IgG1/kappa antibody; also called clone #6; #6 antibody
Take B5: the EC50 in experiment [2] was found to be 0.805 µg/mL. The “absorbance (415 nm, reference 490 nm)” value in experiment [3] is less than 0.5.
